The target in test [1] is S. cerevisiae cytochrome c oxidase (complex IV), CIV (S. cerevisiae (endogenous in strain BY 4741)) (UniProt P00427).
The target in test [2] is S. cerevisiae CIII2CIV1/2 respiratory supercomplex (S. cerevisiae (endogenous in strain BY 4741)) (UniProt P07143). Kind of test: cryo-EM structure.
Test [3] addresses S. cerevisiae cytochrome c oxidase (complex IV), CIV (S. cerevisiae (endogenous in strain BY 4741)) (UniProt P00427). Briefly: cryo-EM structure.

We go through 1 substance from publication doi:10.1101/2020.11.27.401935.

What is called stoichiometry N is a count of units in the complex or per binding partner.

Sequence of UniProt P00427 (P00427 whole entry, looked up, one chain of several): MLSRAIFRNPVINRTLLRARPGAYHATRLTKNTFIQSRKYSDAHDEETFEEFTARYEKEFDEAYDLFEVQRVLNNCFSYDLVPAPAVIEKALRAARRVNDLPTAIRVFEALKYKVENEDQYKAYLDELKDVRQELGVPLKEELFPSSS
Sequence of UniProt P07143 (P07143 whole entry, looked up, one chain of several): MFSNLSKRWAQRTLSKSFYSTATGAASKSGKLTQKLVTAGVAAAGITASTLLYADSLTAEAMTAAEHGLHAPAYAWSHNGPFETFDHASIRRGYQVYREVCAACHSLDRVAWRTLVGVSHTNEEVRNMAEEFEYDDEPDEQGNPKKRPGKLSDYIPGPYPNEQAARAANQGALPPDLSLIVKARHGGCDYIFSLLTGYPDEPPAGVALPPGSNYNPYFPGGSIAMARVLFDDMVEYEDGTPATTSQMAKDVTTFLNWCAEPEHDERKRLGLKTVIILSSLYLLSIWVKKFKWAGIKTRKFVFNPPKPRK

On to “S. cerevisiae cytochrome c (isoform-1 cyt. c) (from UniProt P00044 1-109) (natural protein)”, for which, in test [1], the cyt. c:O2 oxidoreductase activity of isolated CIV at a cyt. c:CIV ratio of one was 3 e^-/s. The substance further displayed a stoichiometry N in test [2] of 1. In addition, in test [3], the cyt. c occupancy from integrated density (map with cyt. c at CIV) stood at 1 and the percent of particle images with cyt. c bound at CIV worked out at 33%.
